Source: PMC2995471, “Identification of amino acid residues in protein SRP72 required for binding to a kinked 5e motif of the human signal recognition particle RNA”

Assays:
Test in all cases: Ni-NTA magnetic bead pull-down; EMSA: 50 mM Tris-HCl pH 7.9, 300 mM KOAc, 5 mM MgCl2, 16% glycerol, 10 min 37 C; bead pull-down: 82.5 ng 5e RNA, 0.056-1.8 uM protein, eluted with 250 mM imidazole (binding buffer not given, as in ref 16)
[1] = biological target: T1, 72h 583-RS-584 to AA (human, UniProt O76094 531-590, R583A;S584A); conditions: protein: recombinant; tags: His6; hairpin with 11-nt 5e internal motif (K-turn)
T1 sequence: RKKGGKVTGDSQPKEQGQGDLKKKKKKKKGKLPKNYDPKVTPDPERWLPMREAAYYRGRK

[2] = biological target: T2, 72h (human, UniProt O76094 531-590); conditions: protein: recombinant; tags: His6; hairpin with 11-nt 5e internal motif (K-turn)
T2 sequence: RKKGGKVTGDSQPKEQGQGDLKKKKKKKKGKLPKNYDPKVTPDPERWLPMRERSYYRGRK

[3] = biological target: T3, 72f (human, UniProt O76094 531-587); conditions: protein: recombinant; tags: N-terminal His6; hairpin with 11-nt 5e internal motif (K-turn)
T3 sequence: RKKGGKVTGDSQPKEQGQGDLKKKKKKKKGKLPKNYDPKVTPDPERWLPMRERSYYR

[4] = biological target: T4, 72h 589-RK-590 to AA (human, UniProt O76094 531-590, R589A;K590A); conditions: protein: recombinant; tags: His6; hairpin with 11-nt 5e internal motif (K-turn)
T4 sequence: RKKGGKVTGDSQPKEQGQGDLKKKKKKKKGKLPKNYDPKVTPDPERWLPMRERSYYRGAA

[5] = biological target: T5, 72g (human, UniProt O76094 531-585); conditions: protein: recombinant; tags: N-terminal His6; hairpin with 11-nt 5e internal motif (K-turn)
T5 sequence: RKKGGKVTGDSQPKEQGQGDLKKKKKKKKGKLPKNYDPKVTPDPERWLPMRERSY

[6] = biological target: T6, 72e (human, UniProt O76094 531-617); conditions: protein: recombinant; tags: N-terminal His6; hairpin with 11-nt 5e internal motif (K-turn)
T6 sequence: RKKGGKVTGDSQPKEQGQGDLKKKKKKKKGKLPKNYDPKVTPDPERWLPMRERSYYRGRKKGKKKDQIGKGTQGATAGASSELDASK

[7] = biological target: T7, 72h 587-RG-588 to AA (human, UniProt O76094 531-590, R587A;G588A); conditions: protein: recombinant; tags: His6; hairpin with 11-nt 5e internal motif (K-turn)
T7 sequence: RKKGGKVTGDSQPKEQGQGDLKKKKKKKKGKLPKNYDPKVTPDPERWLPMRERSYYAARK

[8] = biological target: T8, 72h 577-WL-578 to AA (human, UniProt O76094 531-590, W577A;L578A); conditions: protein: recombinant; tags: His6; hairpin with 11-nt 5e internal motif (K-turn)
T8 sequence: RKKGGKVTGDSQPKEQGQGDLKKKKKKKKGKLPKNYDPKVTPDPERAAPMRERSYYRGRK

[9] = biological target: T9, 72k (human, UniProt O76094 545-590); conditions: protein: recombinant; tags: His6; hairpin with 11-nt 5e internal motif (K-turn)
T9 chain: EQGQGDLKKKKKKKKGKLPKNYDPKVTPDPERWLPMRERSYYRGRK

[10] = biological target: T10, 72j (human, UniProt O76094 541-590); conditions: protein: recombinant; tags: His6; hairpin with 11-nt 5e internal motif (K-turn)
T10 chain: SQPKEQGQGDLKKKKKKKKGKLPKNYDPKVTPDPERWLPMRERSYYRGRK

[11] = biological target: T11, 72h M580A (human, UniProt O76094 531-590, M580A); conditions: protein: recombinant; tags: His6; hairpin with 11-nt 5e internal motif (K-turn)
T11 sequence: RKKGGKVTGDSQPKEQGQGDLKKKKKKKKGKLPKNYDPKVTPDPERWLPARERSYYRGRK

[12] = biological target: T12, 72h del 555-KK-556 (human, UniProt O76094 531-590, del555-556); conditions: protein: recombinant; tags: His6; hairpin with 11-nt 5e internal motif (K-turn)
T12 sequence: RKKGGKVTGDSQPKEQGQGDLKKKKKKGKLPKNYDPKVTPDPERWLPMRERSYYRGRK

[13] = biological target: T13, 72h 581-RE-582 to AA (human, UniProt O76094 531-590, R581A;E582A); conditions: protein: recombinant; tags: His6; hairpin with 11-nt 5e internal motif (K-turn)
T13 sequence: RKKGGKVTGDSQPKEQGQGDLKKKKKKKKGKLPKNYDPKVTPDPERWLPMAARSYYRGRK

[14] = biological target: T14, 72h 579-PM-580 to AA (human, UniProt O76094 531-590, P579A;M580A); conditions: protein: recombinant; tags: His6; hairpin with 11-nt 5e internal motif (K-turn)
T14 sequence: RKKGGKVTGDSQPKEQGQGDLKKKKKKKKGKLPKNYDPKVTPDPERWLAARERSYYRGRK

[15] = biological target: T15, 72h 585-YY-586 to AA (human, UniProt O76094 531-590, Y585A;Y586A); conditions: protein: recombinant; tags: His6; hairpin with 11-nt 5e internal motif (K-turn)
T15 sequence: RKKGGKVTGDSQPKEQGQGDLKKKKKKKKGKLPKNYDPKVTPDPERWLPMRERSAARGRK

[16] = biological target: T16, 72h P579A (human, UniProt O76094 531-590, P579A); conditions: protein: recombinant; tags: His6; hairpin with 11-nt 5e internal motif (K-turn)
T16 sequence: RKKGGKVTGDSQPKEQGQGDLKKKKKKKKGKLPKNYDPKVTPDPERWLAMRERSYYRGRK

B1: 5e SRP RNA (structured_RNA)
RNA: GGUCCGGGUGUCCGCACUAGGGAGCUAGUGGGAUCGCGCCUGGAUC
- binding result [1]: no binding
- binding result [2]: binds
- binding result [3]: binds
- binding result [4]: binds
- binding result [5]: no binding
- binding result [6]: binds
- binding result [7]: binds
- binding result [8]: no binding
- binding result [9]: binds
- binding result [10]: binds
- binding signal [11]: 100 ± 4 % of wild-type binding
- binding signal [12]: 46 ± 12 % of wild-type binding
- binding signal [13]: 69 ± 14 % of wild-type binding
- binding signal [14]: 14 ± 9 % of wild-type binding
- binding signal [15]: 60 ± 3 % of wild-type binding
- binding signal [16]: 26 ± 1 % of wild-type binding
